# Measurements published in IntAct's records for PubMed 21807993.
# B1: E4 ubiquitin-protein ligase UFD2 (Saccharomyces cerevisiae), P54860 (parent)
# chain: MTAIEDILQITTDPSDTRGYSLLKSEEVPQGSTLGVDFIDTLLLYQLTENEKLDKPFEYLNDCFRRNQQQKRITKNKPNAESLHSTFQEIDRLVIGYGVVALQIENFCMNGAFINYITGIVSNVNSYTDFLSQIIQRAILEGTALDLLNAVFPTLLEYCNKHVSHFDLNESVIYNNVLTIFELFVTFKPIAEIFTKIDGFFADYSCKPQDFERKTILGPILSLSPIEAAVAIRNYGDNLLRSKQQTAMIHESLQAEHKVVIDRLFFIVDKLVRGSLNSRTDMISYFAHIANKNHLRRADHPPFKELSSNGFMSNITLLLVRFSQPFLDISYKKIDKIDANYFNNPSLFIDLSGETRLNSDFKEADAFYDKNRKTADSKPNFISDCFFLTLTYLHYGLGGTLSFEEKMGSEIKALKEEIEKVKKIAANHDVFARFITAQLSKMEKALKTTESLRFALQGFFAHRSLQLEVFDFICGASTFLIRVVDPEHEFPFKQIKLPLIPDQIGVENVDNADFLRAHAPVPFKYYPEFVVEGPVNYSLYISKYQTSPIFRNPRLGSFVEFTTMVLRCPELVSNPHLKGKLVQLLSVGAMPLTDNSPGFMMDIFEHDELVNKNLLYALLDFYVIVEKTGSSSQFYDKFNSRYSISIILEELYYKIPSYKNQLIWQSQNNADFFVRFVARMLNDLTFLLDEGLSNLAEVHNIQNELDNRARGAPPTREEEDKELQTRLASASRQAKSSCGLADKSMKLFEIYSKDIPAAFVTPEIVYRLASMLNYNLESLVGPKCGELKVKDPQSYSFNPKDLLKALTTVYINLSEQSEFISAVAKDERSFNRNLFVRAVDILGRKTGLASPEFIEKLLNFANKAEEQRKADEEEDLEYGDVPDEFLDPLMYTIMKDPVILPASKMNIDRSTIKAHLLSDSTDPFNRMPLKLEDVTPNEELRQKILCFKKQKKEEAKHKASE
# Variants of: B1
# Settings: with cdc48_yeast CDC48, P25694
# Sequence of cdc48_yeast CDC48, P25694 (P25694 whole entry): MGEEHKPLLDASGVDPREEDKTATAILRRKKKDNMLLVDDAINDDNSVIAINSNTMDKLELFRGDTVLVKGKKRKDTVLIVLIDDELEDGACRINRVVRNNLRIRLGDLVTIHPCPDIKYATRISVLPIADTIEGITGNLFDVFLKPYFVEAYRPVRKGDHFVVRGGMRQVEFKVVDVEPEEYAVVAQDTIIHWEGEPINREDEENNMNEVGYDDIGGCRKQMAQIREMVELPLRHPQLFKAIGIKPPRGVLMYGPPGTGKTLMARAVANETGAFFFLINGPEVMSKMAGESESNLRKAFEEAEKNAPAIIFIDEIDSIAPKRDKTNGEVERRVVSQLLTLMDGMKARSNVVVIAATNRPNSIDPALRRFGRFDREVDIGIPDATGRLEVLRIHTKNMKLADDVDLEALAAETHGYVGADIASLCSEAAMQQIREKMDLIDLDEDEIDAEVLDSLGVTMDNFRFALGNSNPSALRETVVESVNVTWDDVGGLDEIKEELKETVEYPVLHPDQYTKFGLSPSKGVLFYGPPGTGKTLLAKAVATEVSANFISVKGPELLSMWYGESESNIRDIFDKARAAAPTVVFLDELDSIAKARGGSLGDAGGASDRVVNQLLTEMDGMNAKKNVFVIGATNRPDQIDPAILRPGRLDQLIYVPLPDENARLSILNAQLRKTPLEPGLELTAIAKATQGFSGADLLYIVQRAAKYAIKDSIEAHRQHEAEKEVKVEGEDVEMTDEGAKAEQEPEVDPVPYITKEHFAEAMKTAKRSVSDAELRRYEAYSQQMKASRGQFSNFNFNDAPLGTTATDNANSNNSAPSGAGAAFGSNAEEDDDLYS
row,Variant,effect of a mutation on the interaction
1,G274D,disrupting interaction strength
2,C385Y,disrupting interaction strength
